Experimental data: patent US6068841

Molecular target: mouse Fas on mouse hepatic parenchymal cells (mouse) (UniProt P25446)

“anti-mouse Fas antibody (Jo-2; product of Phar-Mingen Co.)” showed a Viability (%) of mouse hepatic parenchymal cells (ALAMAR BLUE fluorescence) of 99%.
